Data as given in patent publication US20240261333A1, “NOVEL TARGETS FOR ENHANCING ANTI-TUMOR IMMUNITY” (THE BROAD INSTITUTE, INC., priority 2021, published 2024).

Legend:
Assay in all cases: co-IP with IgG control, lysate of N-FLAG B3GNT2 cells, mass spectrometry
[1] = biological target: COPA (human) (UniProt P53621)
[2] = biological target: RPL6 (human) (UniProt Q02878)
[3] = biological target: LAMC1 (human) (UniProt P11047)
[4] = biological target: DDX17 (human) (UniProt Q92841)
[5] = biological target: XPOT (human) (UniProt O43592)
[6] = biological target: P4HA2 (human) (UniProt O15460)
[7] = biological target: ARPC1B (human) (UniProt O15143)
[8] = biological target: TTC13 (human) (UniProt Q8NBP0)
[9] = biological target: RUVBL2 (human) (UniProt Q9Y230)
[10] = biological target: XPO1 (human) (UniProt O14980)
[11] = biological target: PRRC2C (human) (UniProt Q9Y520)
[12] = biological target: SPARC (human) (UniProt P09486)
[13] = biological target: RPS24 (human) (UniProt P62847)
[14] = biological target: UniProt P01837.1
[15] = biological target: SBSN (human) (UniProt Q6UWP8)
[16] = biological target: TGM1 (human) (UniProt P22735)
[17] = biological target: MMS19 (human) (UniProt Q96T76)
[18] = biological target: CLTC (human) (UniProt Q00610)
[19] = biological target: P0AA25.2 [thioredoxin: P0AA25]
[20] = biological target: RPL17 (human) (UniProt P18621)
[21] = biological target: RPL7A (human) (UniProt P62424)
[22] = biological target: LUC7L3 (human) (UniProt O95232)
[23] = biological target: PLOD1 (human) (UniProt Q02809)
[24] = biological target: NAP1L1 (human) (UniProt P55209)
[25] = biological target: CPSF7 (human) (UniProt Q8N684)
[26] = biological target: PUF60 (human) (UniProt Q9UHX1)
[27] = biological target: PURA (human) (UniProt Q00577)
[28] = biological target: PSMA3 (human) (UniProt P25788)
[29] = biological target: HNRNPH1 (human) (UniProt P31943)
[30] = biological target: JUP (human) (UniProt P14923)
[31] = biological target: DDX3X (human) (UniProt O00571)
[32] = biological target: RBM14 (human) (UniProt Q96PK6)
[33] = biological target: MMP14 (human) (UniProt P50281)
[34] = biological target: TPM2 (human) (UniProt P07951)
[35] = biological target: SRSF6 (human) (UniProt Q13247)
[36] = biological target: HBB (human) (UniProt P68871)
[37] = biological target: PSMB5 (human) (UniProt P28074)

IgG control (Millipore Sigma 12-371) (antibody)
co-IP/MS count, N-term IgG [1]: 0
co-IP/MS count, N-term IgG [2]: 5
co-IP/MS count, N-term IgG [3]: 0
co-IP/MS count, N-term IgG [4]: 23
co-IP/MS count, N-term IgG [5]: 0
co-IP/MS count, N-term IgG [6]: 0
co-IP/MS count, N-term IgG [7]: 2
co-IP/MS count, N-term IgG [8]: 0
co-IP/MS count, N-term IgG [9]: 0
co-IP/MS count, N-term IgG [10]: 0
co-IP/MS count, N-term IgG [11]: 11
co-IP/MS count, N-term IgG [12]: 0
co-IP/MS count, N-term IgG [13]: 4
co-IP/MS count, N-term IgG [14]: 87
co-IP/MS count, N-term IgG [15]: 25
co-IP/MS count, N-term IgG [16]: 9
co-IP/MS count, N-term IgG [17]: 0
co-IP/MS count, N-term IgG [18]: 6
co-IP/MS count, N-term IgG [19]: 3
co-IP/MS count, N-term IgG [20]: 0
co-IP/MS count, N-term IgG [21]: 4
co-IP/MS count, N-term IgG [22]: 2
co-IP/MS count, N-term IgG [23]: 0
co-IP/MS count, N-term IgG [24]: 0
co-IP/MS count, N-term IgG [25]: 8
co-IP/MS count, N-term IgG [26]: 5
co-IP/MS count, N-term IgG [27]: 2
co-IP/MS count, N-term IgG [28]: 0
co-IP/MS count, N-term IgG [29]: 11
co-IP/MS count, N-term IgG [30]: 39
co-IP/MS count, N-term IgG [31]: 19
co-IP/MS count, N-term IgG [32]: 4
co-IP/MS count, N-term IgG [33]: 0
co-IP/MS count, N-term IgG [34]: 0
co-IP/MS count, N-term IgG [35]: 3
co-IP/MS count, N-term IgG [36]: 0
co-IP/MS count, N-term IgG [37]: 0
